T1: NUPR1 (recombinant, purified) (UniProt O60356 1-82)
T1 chain: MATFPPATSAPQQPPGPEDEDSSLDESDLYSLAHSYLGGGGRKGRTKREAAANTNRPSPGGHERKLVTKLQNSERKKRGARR

B1: NUPR1 (recombinant, purified) (natural protein, UniProt O60356 1-82, looked up)
chain: MATFPPATSAPQQPPGPEDEDSSLDESDLYSLAHSYLGGGGRKGRTKREAAANTNRPSPGGHERKLVTKLQNSERKKRGARR
notes: Nuclear Protein 1 (NUPR1), described as an intrinsically disordered protein of 82 amino acids with two tyrosines (Tyr30, Tyr36); also called Nuclear Protein 1; rNUPR1; source: expressed and purified as described (12)
B2: importin-α3 (residues 1–520), recombinant (domain or fragment, UniProt O00629 1-520, looked up)
chain: MADNEKLDNQRLKNFKNKGRDLETMRRQRNEVVVELRKNKRDEHLLKRRNVPHEDICEDSDIDGDYRVQNTSLEAIVQNASSDNQGIQLSAVQAARKLLSSDRNPPIDDLIKSGILPILVHCLERDDNPSLQFEAAWALTNIASGTSEQTQAVVQSNAVPLFLRLLHSPHQNVCEQAVWALGNIIGDGPQCRDYVISLGVVKPLLSFISPSIPITFLRNVTWVMVNLCRHKDPPPPMETIQEILPALCVLIHHTDVNILVDTVWALSYLTDAGNEQIQMVIDSGIVPHLVPLLSHQEVKVQTAALRAVGNIVTGTDEQTQVVLNCDALSHFPALLTHPKEKINKEAVWFLSNITAGNQQQVQAVIDANLVPMIIHLLDKGDFGTQKEAAWAISNLTISGRKDQVAYLIQQNVIPPFCNLLTVKDAQVVQVVLDGLSNILKMAEDEAETIGNLIEECGGLEKIEQLQNHENEDIYKLAYEIIDQFFSSDDIDEDPSLVPEAIQGGTFGFNSSANVPTEGFQ
notes: importin-α3 (KPNA4), residues 1–520, codon-optimized synthetic vector (Nzytech); called a 58 kDa protein with 6 tryptophans; also called KPNA4; importin-alpha3; source: final Superdex G200 16/60

What was measured:
[1] = target: B2; assay: ITC; importin-α3 (100–110 μM) in the syringe, NUPR1 (5–10 μM) in the calorimetric cell, Tris 50 mM pH 8, 25°C; single binding site model (1:1); conditions: both partners purified
[2] = target: B2; assay: ITC; as a3 with ZZW-115 kept constant at 100 μM during the titration; analysed as an apparent quasibinary system and as an exact ternary system; 25°C; conditions: both partners purified
[3] = target: B1; assay: ITC; importin-α3 (100–110 μM) in the syringe, NUPR1 (5–10 μM) in the calorimetric cell, Tris 50 mM pH 8, 25°C; single binding site model (1:1); conditions: both partners purified
[4] = target: B1; assay: ITC; as a3 with ZZW-115 kept constant at 100 μM during the titration; analysed as an apparent quasibinary system and as an exact ternary system; 25°C; conditions: both partners purified
[5] = target: T1, NUPR1 (recombinant, purified); assay: ITC; 25°C, with ZZW-115

| Binder | Ka [1] | Kd [1] | Kd [2] | dH [3] | fold reduction in affinity with 100 μM ZZW-115 (ternary equilibrium analysis) [4] | Ka [5] |
| --- | --- | --- | --- | --- | --- | --- |
| B1 | 690000 M⁻¹ | 1.4 µM | 35 µM |  |  |  |
| B2 |  |  |  | -13.7 kcal/mol | 21 fold | 28000 M⁻¹ |
